Experimental data reported in US20230331821A1 (VIR BIOTECHNOLOGY, published 2023).
Where two headings read alike, the source gives them in different places.

Tests used:
[1] = molecular target: T1, SARS-CoV-2 Spike (S) protein, strain BetaCoV/Wuhan-Hu-1/2019, full length (SARS-CoV-2 Wuhan-Hu-1, UniProt P0DTC2 14-1273); test: cell-based or functional assay
[2] = molecular target: SARS-CoV-1 Spike (S) protein, strain SARS, on ExpiCHO cells (SARS-CoV (SARS-CoV-1), strain SARS, UniProt P59594 14-1255); test: flow cytometry, ExpiCHO cells expressing SARS-CoV-1 S; % positive cells
[3] = molecular target: His-tagged RBD of SARS-CoV-2 (SARS-CoV-2 BetaCoV/Wuhan-Hu-1/2019, UniProt P0DTC2 331-550)
[4] = molecular target: His-tagged RBD of SARS-CoV-1 (SARS-CoV-1, UniProt P59594 306-527)
[5] = molecular target: T1, SARS-CoV-2 Spike (S) protein, strain …; test: flow cytometry, ExpiCHO cells expressing SARS-CoV-2 S; % positive cells
[6] = molecular target: T1, SARS-CoV-2 Spike (S) protein, strain …
[7] = molecular target: T2, SARS-CoV-1 RBD (Sino Biological) (SARS-CoV-1, UniProt P59594 306-527); test: BLI (Octet), antibody on protein A sensors, RBD in solution, global fit
[8] = molecular target: T3, SARS-CoV-2 RBD (produced in house in Expi-CHO cells; residues 331-550 of spike) (SARS-CoV-2 BetaCoV/Wuhan-Hu-1/2019, UniProt P0DTC2 331-550); test: as above
[9] = molecular target: T2, SARS-CoV-1 RBD (Sino Biological); test: ELISA, antigen coated on the plate, OD 405 nm
[10] = molecular target: T3, SARS-CoV-2 RBD (produced in house in …); test: ELISA, antigen coated on the plate, OD 405 nm
[11] = molecular target: T2, SARS-CoV-1 RBD (Sino Biological); test: ELISA, antigen coated on the plate, OD 405 nm; remark: listed apart in the source
[12] = molecular target: T3, SARS-CoV-2 RBD (produced in house in …); test: ELISA, antigen coated on the plate, OD 405 nm; remark: listed apart in the source
[13] = molecular target: T4, SARS-CoV-1 RBD (Sino Biological) (SARS-CoV-1, UniProt P59594 306-527); test: ELISA, antigen coated on the plate, OD 405 nm; remark: listed apart in the source
[14] = molecular target: T4, SARS-CoV-1 RBD (Sino Biological); test: ELISA, antigen coated on the plate, OD 405 nm; remark: listed apart in the source
[15] = molecular target: T3, SARS-CoV-2 RBD (produced in house in …); test: ELISA, antigen coated on the plate, OD 405 nm; remark: listed apart in the source
[16] = molecular target: T3, SARS-CoV-2 RBD (produced in house in …); test: ELISA, antigen coated on the plate, OD 405 nm; remark: listed apart in the source
[17] = molecular target: T3, SARS-CoV-2 RBD (produced in house in …); test: ELISA, antigen coated on the plate, OD 405 nm; remark: listed apart in the source
[18] = molecular target: T3, SARS-CoV-2 RBD (produced in house in …); test: ELISA, antigen coated on the plate, OD 405 nm; remark: listed apart in the source

B1: SARS-CoV-2 S306 mAb (B cell supernatant) (antibody, V domains shown)
VH: QVQLVQSGAEVKKPGASVKVSCKASTYTFTSFGISWVRQAPGQGLEWMGWITTYSGDTNYAQKFQGRVTMTTDTSTNTAYMELRSLRSDDTAVYYCASDYFDSSGYYHSFDYWGQGTLVTVSS
VL: EIVLTQSPDTLSLSPGERATLSCRASQSVSSYLAWYQQRPGQAPRLLIYDASKRATGIPARFSGSGSGTDFTLTISSLEPEDFAVYYCQQRSNWPPGCSFGQGTKVEIK
Percent neutralization of infection, dilution 2 [1]: -19%
Percent neutralization of infection, dilution 6 [1]: 15%
Percent neutralization of infection, dilution 18 [1]: -9%
Percent neutralization of infection, dilution 54 [1]: 6%

B2: S306 (antibody, V domains shown)
VH: B1 VH
VL: B1 VL
EC50 (read off the curve) [2]: ~20 ng/mL

B3: S310 (antibody, V domains shown)
VH: QVQLVQSGAELKKPGSSVKVSCKASGGTFNSYSFNWVRQAPGQGLEWLGGIIPVLGTSNYAQKFQGRVAVTADEFTTTAYMELSSLRSEDTAVYYCATRTYDSSGYRPYYYGLDVWGQGTPVTVSS
VL: QSALTQPASVSGSPGQSITISCTGTSSDVGSYNLVSWYQQRPGKAPELMIYEVTKRPSGLSNRFSGSKSGNTASLTISGLQAEDEADYYCCSYAGSDTVIFGGGTKVTVL
EC50 (read off the curve) [2]: ~200 ng/mL

B4: SARS-CoV-2 S303 mAb (B cell supernatant) (antibody, V domains shown)
VH: EVQLVESGGGLVKPGGSLRLSCAASGFTFLTYSMNWVRQTPGKRLQWVSAISGSGGATYYADSVKGRFTISRDNSKNTLYLQMNTVTADDTAIYFCARERDDIFPMGLNAFDIWGQGAMVIVSS
VL: DIQMTQSPSTLSASVGDRVTITCRASQSISNWLAWYQQKPGKAPKLLIYKASSLESGVPSRFSGSGSGTEFTLTISSLQPDDSATYYCQQYDTYSWTFGQGTKVEIK
Percent neutralization of infection, dilution 2 [1]: 6%
Percent neutralization of infection, dilution 6 [1]: 5%
Percent neutralization of infection, dilution 18 [1]: 2%
Percent neutralization of infection, dilution 54 [1]: 12%

B5: S303 rIgG1 (antibody, V domains shown)
VH: B4 VH
VL: B4 VL
Kd [3]: 23.6 nM
Kd [4]: < 1 pM
EC50 (read off the curve) [2]: ~1 ng/mL
EC50 (read off the curve) [5]: ~400 ng/mL
EC50 [6]: 0.383 µg/mL
Kd [7]: < 1 pM
Kd [8]: 23.6 nM

B6: S303-rIgG1-LS (antibody, V domains shown)
VH: B4 VH
VL: B4 VL
EC50 (read off the curve) [9]: ~0.03 µg/mL
EC50 (read off the curve) [10]: ~0.09 µg/mL
EC50 (read off the curve) [11]: ~0.03 µg/mL
EC50 (read off the curve) [12]: ~0.09 µg/mL

B7: S110 (antibody, V domains shown)
VH: QVQLVESGGGLVQAGGSLRLSCAASGRTFSSAGMAWFRQAPGKEREFVATSNWNGGDTDYADSVKGRFTISRDNAKNTVYLQMNNLKPEDTAVYYCAAHLQKYGGDYYARIWGQGTQVTVS
EC50 (read off the curve) [13]: ~0.08 µg/mL
EC50 (read off the curve) [14]: ~0.08 µg/mL

B8: SARS-CoV-2 S304 mAb (B cell supernatant) (antibody, V domains shown)
VH: EVQLVESGGGLVQPGGSLRLSCAASGFTFSSYDMHWVRQTTGKGLEWVSTIGTAGDTYYPDSVKGRFTISREDAKNSLYLQMNSLRAGDTAVYYCARGDSSGYYYYFDYWGQGTLLTVSS
VL: DIQMTQSPSSLSAAVGDRVTITCRASQSIGSYLNWYQQKPGKAPKLLIYAASSLQSGVPSRFSGSGSGTDFTLTISSLQPEDFAIYYCQQSYVSPTYTFGPGTKVDIK
Percent neutralization of infection, dilution 2 [1]: -21%
Percent neutralization of infection, dilution 6 [1]: 25%
Percent neutralization of infection, dilution 18 [1]: -22%
Percent neutralization of infection, dilution 54 [1]: 7%

B9: S304-rIgG1-LS (antibody, V domains shown)
VH: B8 VH
VL: B8 VL
EC50 (read off the curve) [15]: ~0.1 µg/mL
EC50 (read off the curve) [16]: ~0.1 µg/mL

B10: SARS-CoV-2 S308 mAb (B cell supernatant) (antibody, V domains shown)
VH: QVQLVESGGGVVQPGRSLRLSCAASRFTFSSYGMHWVRQAPGKGLEWVAVIWHDGNNKHYGDSVKGRVTISRDNSKNTLYLQMTSLRAEDTAVYYCARAVTTFKGSGRARMRGMDVWGQGTTVTVSS
VL: DIQLTQSPSFLSASVGDRVTITCRASQGINTYLAWYQQKPGKAPKLLIYAASTLQSGVPSRFSGSGSGTEFTLTISSLQPEDFATYYCQHLDTYPFTFGPGTKVDIK
Percent neutralization of infection, dilution 2 [1]: -46%
Percent neutralization of infection, dilution 6 [1]: 19%
Percent neutralization of infection, dilution 18 [1]: 32%
Percent neutralization of infection, dilution 54 [1]: 16%

B11: S315 rIgG1-MLNS (antibody, V domains shown)
VH: EVQLVESGGGLVQPGGSLRLSCAASGFTFSNYWMTWVRQAPGKGLEWVANIKQDGSEKYYVDSVKGRFTISRDNAKNSLYLQMNSLRAEDTAVYYCARDLWWNDQAHYYGMDVWGQGTTVTVSS
VL: SYELTQPPSVSVSPGQTARITCSGDAFPNQYAYWYQQKPGQAPVMLIYKDSERPSGIPERFFGSSSGTTVTLTIRGVQAEDEADYYCQSADSSGTVFGGGTKLTVL
EC50 (read off the curve) [17]: ~0.2 µg/mL
EC50 (read off the curve) [18]: ~0.2 µg/mL
